Changes are numbered by the printed parent chain. Values belong to the binder of their own block, whether it stands above or below them. Where no end group is shown, it is not given here.
How the values were obtained:
[1] = molecular target: T1, rhesus monkey LAG-3 full length extra loop peptide (rhesus monkey); assay: ELISA on rhesus full length extra loop peptide
T1 construct: Used in a 'similar peptide ELISA'; Biotinylation is not restated for this peptide; also called Rhesus Extra Loop
T1 peptide: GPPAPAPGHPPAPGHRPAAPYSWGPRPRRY
Procedure: To further examine binding of these antibodies to the extra loop peptide region, additional ELISA assays were performed. In an ELISA assay using the human full-length extra loop peptide (SEQ ID NO: 79), EC₅₀ values for binding were determined for 25E3, 25F7 and 8B7. Additionally, a similar peptide ELISA was conducted using the full length extra loop peptide sequence from rhesus monkey LAG-3, having the sequence […] (SEQ ID NO: 90), and EC₅₀ values for binding were determined for 25F7 and 8B7. […] Moreover, antibodies 25F7 and 8B7 also bind to the rhesus LAG-3 extra loop peptide region, albeit less well compared to the human sequence, which may be due to the species sequence divergence in this polypeptide. The results also confirm that the 26H10 antibody is not capable of recognizing the LAG-3 extra loop peptide.

[2] = molecular target: T2, LAG-3 extra loop scan peptide GPPAAAPGHPLA (human, also: conjugated to biotin, site not given here); assay: peptide scan ELISA
T2 construct: 12-mer overlapping scan peptide of the extra loop
T2 peptide: GPPAAAPGHPLA
Procedure: (§1) In the LAG-3 protein, the immunoglobulin-like first domain of the extracellular region contains an exposed “extra loop” having the amino acid sequence: […] (SEQ ID NO: 79). To examine the binding of 25E3, 25F7, 8B7 and 26H10 to this region of LAG-3, and map the epitope bound by each antibody, a peptide scan experiment was performed across this region. A series of 10 overlapping peptides that scanned across the full length of the extra loop sequence were prepared and conjugated to biotin. For ELISA analysis, microtiter plates pre-coated with streptavidin (Sigma-Aldrich, Cat # M5432) were used to capture the biotinylated loop peptide-conjugates applied in a 100 μl volume at a concentration of 2 μg/mL and incubated 18 hours at 4° C., after which the plates were washed 3 times and blocked at room temperature for 1 hour with blocking buffer (1×PBS+10% FBS). Next, human anti-LAG-3 antibodies serially diluted 3-fold in blocking buffer from 10 μg/mL were applied and the plates were incubated at room temperature for 2 hours and then washed three times. To detect bound human antibody a HRP-conjugated goat anti-human kappa light chain antibody (Bethyl Laboratories, Cat # A80-115P) was diluted to 1 μg/mL in blocking buffer and applied to assay wells for 1 hour followed by three washes and application of TMB substrate (eBioscience, Cat #00-4201-56). Optical density readings at 650 nm wavelength were made on a Spectramax 340PC spectrophotometer ([…].).

[3] = molecular target: T3, LAG-3 extra loop scan peptide APSSWGPRPRRY (human, also: conjugated to biotin, site not given here); assay: peptide scan ELISA
T3 construct: 12-mer overlapping scan peptide of the extra loop
T3 peptide: APSSWGPRPRRY
Procedure: as §1

[4] = molecular target: T4, LAG-3 extra loop scan peptide AAPGHPLAPGPH (human, also: conjugated to biotin, site not given here); assay: peptide scan ELISA
T4 construct: 12-mer overlapping scan peptide of the extra loop
T4 peptide: AAPGHPLAPGPH
Procedure: as §1

[5] = molecular target: T5, LAG-3 extra loop scan peptide HPLAPGPHPAAP (human, also: conjugated to biotin, site not given here); assay: peptide scan ELISA
T5 construct: 12-mer overlapping scan peptide of the extra loop
T5 peptide: HPLAPGPHPAAP
Procedure: as §1

[6] = molecular target: T6, LAG-3 extra loop scan peptide PAAAPGHPLAPG (human, also: conjugated to biotin, site not given here); assay: peptide scan ELISA
T6 construct: 12-mer overlapping scan peptide of the extra loop
T6 peptide: PAAAPGHPLAPG
Procedure: as §1

[7] = molecular target: T7, LAG-3 extra loop scan peptide PGHPLAPGPHPA (human, also: conjugated to biotin); assay: peptide scan ELISA
T7 construct: 12-mer overlapping scan peptide of the extra loop
T7 peptide: PGHPLAPGPHPA
Procedure: as §1

[8] = molecular target: T8, LAG-3 extra loop scan peptide LAPGPHPAAPSS (human, also: conjugated to biotin, site not given here); assay: peptide scan ELISA
T8 construct: 12-mer overlapping scan peptide of the extra loop
T8 peptide: LAPGPHPAAPSS
Procedure: as §1

B3: 25F7 human monoclonal antibody (antibody, IgG1, V domains shown)
VH: QVQLQQWGAGLLKPSETLSLTCAVYGGSFSDYYWNWIRQPPGKGLEWIGEINHNGNTNSNPSLKSRVTLSLDTSKNQFSLKLRSVTAADTAVYYCAFGYSDYEYNWFDPWGQGTLVTVSS
VL: EIVLTQSPATLSLSPGERATLSCRASQSISSYLAWYQQKPGQAPRLLIYDASNRATGIPARFSGSGSGTDFTLTISSLEPEDFAVYYCQQRSNWPLTFGQGTNLEIK
notes: also called 25F7-FITC (IgG1 version)
EC50 [1]: 13.1 nM

B4: 8B7 human monoclonal antibody (antibody, IgG4, V domains shown)
VH: QVQLQQWGAGLLKPSETLSLTCAVYGGSFSGYYWSWIRQPPGKGLEWIGEINHRGNTNCNPSLKSRVTISGDTSKKQFALKLNSVTAADTAVYYCARGYDILTGYYEDSWGPGTLVTVSS
VL: B3 VL with I29V, D50N, Q100G, N103K, L104V
notes: also called 8B7-FITC
EC50 [1]: 0.6 nM

Other lines, results leading:

binding result [1]: no binding
binding result [2]: no binding (tested: 10 µg/mL)
binding result [3]: no binding (tested: 10 µg/mL)
binding result [4]: no binding (tested: 10 µg/mL)
binding result [5]: no binding (tested: 10 µg/mL)
binding result [6]: no binding (tested: 10 µg/mL)
binding result [7]: no binding (tested: 10 µg/mL)
binding result [8]: no binding (tested: 10 µg/mL)
B1: 26H10 human monoclonal antibody (antibody, IgG1, V domains shown)
VH: QVQLVESGGGVVQPGRSLRLSCAASGFTFSSYGMHWVRQAPGKGLEWVAVIWYDGSNKYYADSVKGRFTISRDNSKNTLYLQMNSLRAEDTAVYYCAREWAVASWDYGMDVWGQGTTVTVSS
VL: not shown
notes: also called 26H10-FITC

binding result [4]: binds
binding result [6]: binds
binding result [7]: binds
B2: 25E3 human monoclonal antibody (antibody, IgG1, V domains shown)
VH: EVQLVESGGGVVRPGGSLRLSCAASGFTFDDYGMSWVRQAPGKGLEWVSGINWNGGSTYYADSVKGRFTISGDNAKNSLYLQMNSLRAEDTALYYCTTGGYWGQGTLVTVSS
VL: AIQLTQSPSSLSASVGDRVTITCRASQGIRSALAWYQQKPGKAPKLLIYDASSLESGVPSRFSGSGSGTDFTLTISSLQPEDFATYYCQQFNSYPYTFGQGTKLEIK
